The record followed here is US20190336427A1, “NOVEL PROTEIN TRANSDUCTION DOMAIN AND USE THEREOF” (BIOCELTRAN CO., LTD., priority 2016, published 2019).

Series [1] has as its system porcine skin. As to the kind of experiment: Skin penetration of cell-penetrating peptide-FGF2 mixture by tissue staining, Franz cells with porcine skin. The class given is in vitro ADME. The settings on record: 500 μg, 24 hours. Here is the method:
For skin penetration analysis of FGF2 through tissue staining, Franz cells using the porcine skin were treated with equal amounts (500 μg) of FGF2, PEP1-FGF2 and a STeP-FGF2 mixture. After 24 hours, the porcine skin between the Franz cells was taken out, washed with distilled water and subjected to tissue staining. The porcine skin site exposed to donor cells was cut and then immobilized in 10% buffered formalin to produce a paraffin block, and tissues were sectioned to 7 μm using a microtome. Then, the tissues were mounted on a slide, paraffin was removed, the residue was hydrated and tissue fragments were blocked for 30 minutes. The blocked tissues were treated with […] (cell signaling, green) and reacted at 4° C. for 18 hours. On the following day, the resulting tissues were washed with PBST, treated with an Alexa Fluor 488 secondary antibody at room temperature for 2 hours and washed with PBST again. Then, the tissue fragments were dyed with a solution of a nuclear staining reagent (DAPI) diluted at 1/5000 in PBS in the absence of light for 10 minutes and washed with PBS three times. The tissue fragments were mounted and then analyzed with a confocal scanning laser microscope.

Series [2] relates to HaCaT cells. As to the kind of experiment: Cytotoxicity of cell-penetrating peptides (WST, cell viability). The following applies: HaCaT cells, 2.5, 5 and 10 μM peptide, 24 hours. Here is the method:
Cytotoxicity was evaluated to identify whether or not the peptides of the present invention could be harmlessly used to deliver polymers in vivo.
HaCaT cells cultured in DMEM containing 10% FBS were seeded in a unit dose of 2.5×10^4 on a 96-well plate, cultured for 24 hours and washed with HBSS twice. Cell-penetrating peptides, PEP1 and STeP, were dissolved at different concentrations of 50 μM, 100 μM and 200 μM in D.W. and diluted in a medium such that the final concentrations reached 2.5 μM, 5 μM and 10 μM, and the cells were treated with the resulting peptides and then reacted for 24 hours at 37° C. in a 5% CO2 incubator. After culture, the supernatant was removed, a WST solution was diluted in a medium in a ratio of 1:9 and the cells were treated with the medium. After culturing for 3 hours, absorbance was measured at 450 nm, and cell viability was calculated for cells of a peptide non-treatment group and cells of a peptide treatment group.

For series [3], the target named is EGF receptors in cells (mouse fibroblasts, Balb/c 3T3 clone A31 cells) (mouse) (UniProt Q01279). As to the kind of experiment: cell-based or functional assay.
Series [4] has as its system porcine skin. As to the kind of experiment: Skin penetration of cell-penetrating peptide-FITC mixture, Franz cells with porcine skin. The class given is in vitro ADME. The following applies: 100 μM mixture, FITC:peptide molar ratio 1:0 and 1:2. Here is the method: Franz cells (diameter of 9 mm) were used in order to identify whether or not penetration of FITC into the skin as well as cells was improved under the condition of non-covalent bonding to STeP.
FITC and cell-penetrating peptides (PEP1, STeP) dissolved in borax buffer (pH 8.0) were prepared. The FITC and cell-penetrating peptides (PEP1, STeP) were mixed in a molar ratio of 1:0 and 1:2, and reacted at 37° C. for 30 minutes, and the top of Franz cells were treated with 100 μM of the finally obtained cell-penetrating peptide-FITC mixture. The porcine skin was isolated and washed with PBS three times. After washing, the cryo mold was treated with an OCT embedding matrix (Cell Path Ltd., UK) and tissues were frozen at −70° C. The frozen tissues were cross-sectioned to a thickness of 7 μm at −20° C. using a cryotome (HM520, Germany) to produce fragment slides. To dye the nucleus of the skin cells, tissue fragments fixed to a slide glass were dyed with a solution of a nuclear staining reagent (DAPI) diluted at 1/5000 in PBS in the absence of light for 10 minutes and washed with PBS three times. The resulting cells were mounted and then analyzed with a confocal scanning laser microscope.

Ends that are not written are not given here.

On to “FGF2: fibroblast growth factor-2, basic fibroblast growth factor”, for which the “skin penetration of FGF2 (delivery into porcine skin tissues)” value in series [1] is listed as “not delivered into porcine skin tissues at all”.
As for KETWWETWWTEWSQPYGRKKRRQRRRC [STeP], in series [2], the “cytotoxicity (cell viability)” value was “did not exhibit cytotoxicity”.
With “PEP1-EGF recombinant protein (from UniProt P01133 23-1207) (ligand)”, the Cell proliferation activity (unit/mM), WST assay on Balb/c 3T3 clone A31 cells in series [3] came out at 1.39e+07 unit/mM.
fluorescein isothiocyanate [FITC]: in series [4], the “skin penetration of FITC” value is recorded as “present in the cornified layer of the porcine skin”.
